In article PMC10501992, “How Pol α-primase is targeted to replisomes to prime eukaryotic DNA replication” (Molecular Cell, 2023):

Key:
Conditions in all cases: both partners purified
Mrc1 (budding yeast) = target: T1, Mrc1 (budding yeast) (S. cerevisiae, UniProt P25588 1-1096); assay: cryo-EM structure; budding yeast replisome: 150 nM CMG on fork DNA (39 nt 3′ flap, 60 nt 5′ flap) with 1.5-fold molar excess of Tof1-Csm3, Mrc1 and Pol α-primase; 25 mM HEPES-NaOH pH 7.6, 150 mM NaOAc, 0.5 mM TCEP, 500 μM AMP-PNP, 10 mM Mg(OAc)2, on ice; 10-30% glycerol gradient with glutaraldehyde and BS3 cross-linkers
T1 construct: Mrc1, S. cerevisiae; several small sections modelled (S339-K323 as printed, D468-Q483, N842-E858); source: S. cerevisiae strain yJY32, expressed and purified as described previously
T1 sequence: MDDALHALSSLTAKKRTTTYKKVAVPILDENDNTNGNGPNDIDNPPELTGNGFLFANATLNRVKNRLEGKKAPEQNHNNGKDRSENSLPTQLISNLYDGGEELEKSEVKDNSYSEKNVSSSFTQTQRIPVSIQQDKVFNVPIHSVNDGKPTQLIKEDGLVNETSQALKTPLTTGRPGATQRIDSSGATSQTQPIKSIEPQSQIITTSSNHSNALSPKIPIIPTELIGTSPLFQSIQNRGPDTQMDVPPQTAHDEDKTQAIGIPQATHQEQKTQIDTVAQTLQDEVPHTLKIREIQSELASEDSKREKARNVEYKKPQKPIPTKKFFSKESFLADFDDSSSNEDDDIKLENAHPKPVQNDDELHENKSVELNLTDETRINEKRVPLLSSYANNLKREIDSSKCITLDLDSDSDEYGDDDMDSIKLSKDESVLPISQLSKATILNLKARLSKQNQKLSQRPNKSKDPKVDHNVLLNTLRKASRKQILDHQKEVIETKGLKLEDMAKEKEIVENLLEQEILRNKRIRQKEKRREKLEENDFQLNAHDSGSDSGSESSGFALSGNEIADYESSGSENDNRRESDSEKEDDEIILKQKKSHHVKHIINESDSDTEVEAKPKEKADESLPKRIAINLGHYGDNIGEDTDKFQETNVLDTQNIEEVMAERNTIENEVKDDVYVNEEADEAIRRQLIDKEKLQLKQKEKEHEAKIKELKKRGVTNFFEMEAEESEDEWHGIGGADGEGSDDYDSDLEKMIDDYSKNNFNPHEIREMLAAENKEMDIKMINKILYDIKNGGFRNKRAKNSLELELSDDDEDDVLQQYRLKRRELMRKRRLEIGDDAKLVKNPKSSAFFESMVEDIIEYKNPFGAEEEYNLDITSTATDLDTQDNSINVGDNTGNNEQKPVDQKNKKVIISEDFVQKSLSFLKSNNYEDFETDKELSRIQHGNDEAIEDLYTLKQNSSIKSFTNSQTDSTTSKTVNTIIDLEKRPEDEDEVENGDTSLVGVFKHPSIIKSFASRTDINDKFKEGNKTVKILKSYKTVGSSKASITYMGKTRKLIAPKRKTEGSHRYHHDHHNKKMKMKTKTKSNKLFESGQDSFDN

[1] = target: T2, PRIM2 (human primase accessory subunit) (human, UniProt P49643 1-509); assay: cryo-EM structure; human replisome: 150 nM CMG on fork DNA (60 nt or 15 nt 5′ flap) with 1.5-fold molar excess of AND-1, TIMELESS-TIPIN, CLASPIN and Pol α-primase; 25 mM HEPES-NaOH pH 7.6, 150 mM NaOAc, 0.5 mM TCEP, 500 μM AMP-PNP, 10 mM Mg(OAc)2, on ice; 10-30% glycerol gradient with glutaraldehyde and BS3 cross-linkers
T2 construct: PRIM2, human; modelled residues 1-5 (N terminus) and 17-252 (NTD); stood in the assay as a subunit of m18; also called PRIM2NTD; PRIM2_(Nterm)
T2 sequence: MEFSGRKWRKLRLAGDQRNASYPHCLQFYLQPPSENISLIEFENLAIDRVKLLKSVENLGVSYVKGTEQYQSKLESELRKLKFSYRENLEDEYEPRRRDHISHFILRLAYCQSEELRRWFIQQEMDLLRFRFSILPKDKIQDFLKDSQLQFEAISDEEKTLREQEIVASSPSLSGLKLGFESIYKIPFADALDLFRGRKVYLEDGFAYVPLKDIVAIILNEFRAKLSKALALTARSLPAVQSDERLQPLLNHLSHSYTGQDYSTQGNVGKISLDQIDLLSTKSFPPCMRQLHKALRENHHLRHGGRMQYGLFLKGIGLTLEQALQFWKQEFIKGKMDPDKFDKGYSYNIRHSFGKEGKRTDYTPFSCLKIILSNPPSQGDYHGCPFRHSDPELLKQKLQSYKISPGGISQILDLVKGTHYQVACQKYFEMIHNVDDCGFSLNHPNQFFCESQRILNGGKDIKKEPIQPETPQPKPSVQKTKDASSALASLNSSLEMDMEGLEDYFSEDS

[2] = target: T3, budding yeast CMG (Cdc45-Mcm2-7-GINS) replicative helicase (S. cerevisiae, UniProt Q08032 1-650; P29469 1-868; P24279 1-971; P30665 1-933; P29496 1-775; P53091 …); assay: cryo-EM structure; budding yeast replisome: 150 nM CMG on fork DNA (39 nt 3′ flap, 60 nt 5′ flap) with 1.5-fold molar excess of Tof1-Csm3, Mrc1 and Pol α-primase; 25 mM HEPES-NaOH pH 7.6, 150 mM NaOAc, 0.5 mM TCEP, 500 μM AMP-PNP, 10 mM Mg(OAc)2, on ice; 10-30% glycerol gradient with glutaraldehyde and BS3 cross-linkers
T3 construct: Cdc45, S. cerevisiae; Mcm2, S. cerevisiae; Mcm3, S. cerevisiae; Mcm4, S. cerevisiae (named only within Mcm2-7); Mcm5, S. cerevisiae; Mcm6, S. cerevisiae (named only within Mcm2-7); Mcm7, S. cerevisiae (named only within Mcm2-7); Psf1, subunit of GINS, S. cerevisiae; Psf2, subunit of GINS, S. cerevisiae; Sld5, subunit of GINS, S. cerevisiae; source: S. cerevisiae strain yJY197, expressed and …

B1: Cdc45 (budding yeast) (natural protein, S. cerevisiae, UniProt Q08032 1-650, looked up)
chain: MYYGISQFSEAYNKILRNSSSHSSCQLVIFVSCLNIDALCATKMLSLLFKKQLVQSQIVPIFGYSELRRHYSQLDDNINSLLLVGFGGVIDLEAFLEIDPQEYVIDTDEKSGEQSFRRDIYVLDAHRPWNLDNIFGSQIIQCFDDGTVDDTLGEQKEAYYKLLELDEESGDDELSGDENDNNGGDDEATDADEVTDEDEEDEDETISNKRGNSSIGPNDLSKRKQRKKQIHEYEGVLEEYYSQGTTVVNSISAQIYSLLSAIGETNLSNLWLNILGTTSLDIAYAQVYNRLYPLLQDEVKRLTPSSRNSVKTPDTLTLNIQPDYYLFLLRHSSLYDSFYYSNYVNAKLSLWNENGKKRLHKMFARMGIPLSTAQETWLYMDHSIKRELGIIFDKNLDRYGLQDIIRDGFVRTLGYRGSISASEFVEALTALLEVGNSTDKDSVKINNDNNDDTDGEEEEDNSAQKLTNLRKRWVSNFWLSWDALDDRKVELLNRGIQLAQDLQRAIFNTGVAILEKKLIKHLRIYRLCVLQDGPDLDLYRNPLTLLRLGNWLIECCAESEDKQLLPMVLASIDENTDTYLVAGLTPRYPRGLDTIHTKKPILNNFSMAFQQITAETDAKVRIDNFESSIIEIRREDLSPFLEKLTLSGLL
notes: Cdc45, S. cerevisiae; stood in the assay as a subunit of m2; source: subunit of CMG from S. cerevisiae strain yJY197, purified as described previously
B1: binds (Mrc1 (budding yeast)).

B2: PSF2 (human GINS subunit) (natural protein)
chain: MDAAEVEFLAEKELVTIIPNFSLDKIYLIGGDLGPFNPGLPVEVPLWLAINLKQRQKCRLLPPEWMDVEKLEKMRDHERKEETFTPMPSPYYMELTKLLLNHASDNIPKADEIRTLVKDMWDTRIAKLRVSADSFVRQQEAHAKLDNLTLMEINTSGTFLTQALNHMYKLRTNLQPLESTQSQDF
notes: PSF2, subunit of GINS, human; stood in the assay as a subunit of m19
B2: binds [1].

B3: Tof1-Csm3 (budding yeast) (complex, S. cerevisiae)
chain 1: MSADLQQGTTNAADFSLTVLRARIALLATAIGGPDYTSQIDPPPYKLGDDCLACLKDLKRWFKLVDDQQKRWDVAMAVAEYRILTDDLLPILIDWENKCSLAAKLAKNNPDHEEFRNKAYYDKIALNCLQLLVLMTWPLIVTEQSSSNQITLYGELKKHQLVYKKTILSMESGKVLRAAIRLALDVIKIDRLSRTPRDNMVLKLVLNFFRNVIAIEPGEFTINTKKSMPKKGITSIDTLPPNVSMDDISLNTVISSFHKNKVFGFLLTLTSSLSKEFDQDFINIPLLEIMFYFTKDVNQELLFPRQFETGTHSKVVNKNESSSANNIVTSAGFELSKLLQKEHQMRKNVIKHTSARHSRFGGLLSIQTPDKTRLTVSGSQALVDEKIALQKLDDSKKWNKRIIKKHQSVAAEGLPNSLLNSQTGKAIFFTESNGKHFKEFINNFIDSGFNILLHSVTNYFTTEQDRMVTLEQVEYLLFFAWFVKYQLLRSKIDNSADIKQVSEALKEVTFILVSSLLRSAYDLKNWTVTHAGMIAFNELLNLVSRTKAAQEEDSTDIEFIVSRLFSDERIQLLSNLPKIGSKYSLQFMKSCIELTHSVLKVLEQYSDDKTLVIEGKSRRQKKFNISEGDITKLIEEENVDRDEALDILTSSLRSIEVNFQKVQANYMTEPVIETYINFLERFRELEDDSIKKVFSFFHRVFVQAKEQALLFRFDLIILLREMLSPDGLDRMSRSRKYVSQFSDYFLARLKKRLKKSPAWFVGLLFPPLHNSEVGFYQRYGEYNVLNNESMYAAPASQFKPIPDEEALPPSILLDMKYGVLVSTLLDDGKTELLDQLLKHITHTLDIFKSWLTVNVNAGKETVNPPNEYFTLTGVLNNDPIFKDKDYRALLLLIGYSIPRKINEPCFLPGTVEVSDLTVSCELVKKYLSTPFETPNGLPSSSYLLRVRSEKDSFSHNEQDGWEGDDDYDYNDPYIVPDDQILSKSDAAYFKDLDNNASDKLKGTKFSKGIARSKKKDKRKRRKGEAKTNLPMFGDQDDERPQTVRERHGVFSKEFISDSEDDEDLMNPIFFENETYMRWLLDKNNGQLTEDRYIQFAKFAAERMNNGGVVTGDYTSLFGGSIPSIESIRATESSSFAPDKSLISLASHVASEMSIFDVNNNNNNQLSDDDVNSESRNSLGSSQPSNSQNMFQSEVYSRKESTKRSLEASAADESDEDEEAIRLFGKKSRVVLSQGDSDD
chain 2: MDQDFDSLLLGFNDSDSVQKDPTVPNGLDGSVVDPTIADPTAITARKRRPQVKLTAEKLLSDKGLPYVLKNAHKRIRISSKKNSYDNLSNIIQFYQLWAHELFPKAKFKDFMKICQTVGKTDPVLREYRVSLFRDEMGMSFDVGTRETGQDLERQSPMVEEHVTSAEERPIVADSFAQDKRNVNNVDYDNDEDDDIYHLSYRNRRGRVLDERGNNETVLNNVVPPKEDLDALLKTFRVQGPVGLEENEKKLLLGWLDAHRKMEKGSMTEEDVQLIQSLEEWEMNDIEGQHTHYDLLPGGDEFGVDQDELDAMKEMGF
notes: Tof1, S. cerevisiae; Csm3, S. cerevisiae; source: S. cerevisiae strain yAE48, expressed and purified as described previously
B3: binds [2].

B4: Mcm2 (budding yeast) (natural protein, S. cerevisiae)
chain: MSDNRRRRREEDDSDSENELPPSSPQQHFRGGMNPVSSPIGSPDMINPEGDDNEVDDVPDIDEVEEQMNEVDLMDDNMYEDYAADHNRDRYDPDQVDDREQQELSLSERRRIDAQLNERDRLLRNVAYIDDEDEEQEGAAQLDEMGLPVQRRRRRRQYEDLENSDDDLLSDMDIDPLREELTLESLSNVKANSYSEWITQPNVSRTIARELKSFLLEYTDETGRSVYGARIRTLGEMNSESLEVNYRHLAESKAILALFLAKCPEEMLKIFDLVAMEATELHYPDYARIHSEIHVRISDFPTIYSLRELRESNLSSLVRVTGVVTRRTGVFPQLKYVKFNCLKCGSILGPFFQDSNEEIRISFCTNCKSKGPFRVNGEKTVYRNYQRVTLQEAPGTVPPGRLPRHREVILLADLVDVSKPGEEVEVTGIYKNNYDGNLNAKNGFPVFATIIEANSIKRREGNTANEGEEGLDVFSWTEEEEREFRKISRDRGIIDKIISSMAPSIYGHRDIKTAVACSLFGGVPKNVNGKHSIRGDINVLLLGDPGTAKSQILKYVEKTAHRAVFATGQGASAVGLTASVRKDPITKEWTLEGGALVLADKGVCLIDEFDKMNDQDRTSIHEAMEQQSISISKAGIVTTLQARCSIIAAANPNGGRYNSTLPLAQNVSLTEPILSRFDILCVVRDLVDEEADERLATFVVDSHVRSHPENDEDREGEELKNNGESAIEQGEDEINEQLNARQRRLQRQRKKEEEISPIPQELLMKYIHYARTKIYPKLHQMDMDKVSRVYADLRRESISTGSFPITVRHLESILRIAESFAKMRLSEFVSSYDLDRAIKVVVDSFVDAQKVSVRRQLRRSFAIYTLGH
notes: Mcm2, S. cerevisiae; stood in the assay as a subunit of m2; source: subunit of CMG from S. cerevisiae strain yJY197, purified as described previously
B4: binds (Mrc1 (budding yeast)).
